From patent publication US12545899B2, “Luciferase enzymes for use with thermostable luciferins in bioluminescent assays” (Promega Corporation, priority 2018, dated 2026)
Numbering of substitutions follows the chain as printed. In names and notes the source's numbering stands.

B1: MK0148: SEQ ID NO: 114; H244W+S193A+N228D+L305F+S306P+I109V+C38R+F55I+Y108F+A316W+Y339M+T342S+V348I+C257R+T289S+S313T+D435G+L437R+W510R (protein)
chain: MADKNILYGPEPFYPLEDGTAGEQMFDALSRYAAIPGRIALTNAHTKENVLYEEILKLSCRLAESFKKYGLKQNDTIAVCSENSLQFFLPVIASLYLGIIVAPVNDKFVERELIHSLGIVKPRIVFCSKNTFQKVLNVKSKLKSIETIIILDLNEDLGGYQCLNNFISQNSDSNLDVKKFKPYSFNRDDQVAAIMFSSGTTGLPKGVMLTHKNIVARFSIAKDPTFGDAINPTSAILTVIPFHWGFGMMTTLGYFTCGFRVVLMHTFEEKLFLQSLQDYKVESTLLVPTLMAFLAKSALVEKYDFPHLKEIATGGWPLSKEIGEMVKKRFKLNFVRQGMGLSETTSAILITPKGDAKPGSTGKIVPLHAVKVVDPTTGKILGPNEPGELYFKGPMIMKGYYNNEEATKAIIDNDGWLRSGDIAYYDNDGHFYIVGRRKSLIKYKGYQVAPAEIEGILLQHPYIVDAGVTGIPDEAAGELPAAGVVVQTGKYLNEQIVQDYVASQVSTAKWLRGGVKFLDEIPKGSTGKIDRKVLRQMLEKHTNGHHHHHHHH
B2: MK0149: SEQ ID NO: 115; H244W+S193A+N228D+L305F+S306P+I109V+C38R+F55I+Y108F+A316W+Y339M+T342S+V348I+C257R+T284A+T289S+L437R (protein)
chain: B1 chain with C257R, T284A, T289S, T313S, G435D
B3: MK0151: SEQ ID NO: 116; H244W+S193A+N228D+L305F+S306P+I109V+C38R+F55I+Y108F+A316W+Y339M+T342S+V348I+S313T+D435G+L437R (protein)
chain: B1 chain with C257R, T313S, K353R, G435D, W510R
B4: MK0152: SEQ ID NO: 117; H244W+S193A+N228D+L305F+S306P+I109V+C38R+F55I+Y108F+A316W+Y339M+T342S+V348I+C257R+K353R+L437R+W510R (protein)
chain: B1 chain with T289S, T313S, K353R, R437L, W510R
B5: MK0153: SEQ ID NO: 118; H244W+S193A+N228D+L305F+S306P+I109V+C38R+F55I+Y108F+A316W+Y339M+T342S+V348I+T289S+K353R+D435G+W510R (protein)
chain: B1 chain with C257R, T289S, K353R, G435D, R437L
B6: MK0145: SEQ ID NO: 111; H244W+S193A+N228D+L305F+S306P+I109V+C38R+F55I+Y108F+A316W+Y339M+T342S+V348I+D435G (protein)
chain: B1 chain with T313S, R437L

Assays:
[1] = Luminescence at 1 mM CS0333 (Table 11); type: biochemical; details: 1 mM substrate, 1 mM ATP
Text: (§1) Tables 10 and 11 include representative results of kinetic analysis of the thermostable variants with D/L luciferin, CS0333, and CS0280. […] MK0135 and MK0137 have amino acid substitutions that improve thermostability relative to MK0133 and MK0134, respectively, while retaining activity on the luciferin analogs CS0333 and CS0280.

[2] = Luminescence at 1 mM D/L-luciferin (Table 11); type: biochemical; details: 1 mM substrate, 1 mM ATP
Text: as §1

[3] = Luminescence at 1 mM CS0280 (Table 11); type: biochemical; details: 1 mM substrate, 1 mM ATP
Text: as §1

[4] = Kinetic analysis of thermostable variants with CS0333 (Tables 13, 14); type: biochemical; details: 2 mM ATP
Text: (§2) Tables 13 and 14 include representative results of kinetic analysis of the thermostable variants with D/L luciferin, CS0333, and CS0280. The panel of enzyme variants highlight amino acid substitutions that further improve upon MK0137 in maximum luminescence (Vmax) or Km in different buffers with the different substrates tested (D/L-luciferin, CS0333, and CS0280). In particular, enzyme variants MK0151 and MK153 show improvements relative to MK0137 across multiple buffers with multiple substrates.

[5] = Kinetic analysis of thermostable variants with CS0280 (Tables 13, 14); type: biochemical; details: 2 mM ATP
Text: as §2

[6] = Kinetic analysis of thermostable variants with D/L-luciferin (Tables 13, 14); type: biochemical; details: 2 mM ATP
Text: as §2

[7] = Kinetic analysis of thermostable variants with 400 fM-4 mM CS0280 (Table 12); type: biochemical; details: 4 mM ATP
Method: Table 12 includes representative results of kinetic analysis of the thermostable variants with 400 fM-4 mM CS0280. This panel of enzyme variants have a combination of improved thermostability and brightness with CS0280 relative to their progenitor enzyme variants MK134 and MK137.

[8] = Differential scanning fluorimetry (DSF) analysis; type: physicochemical; details: Table 12
Summary of the method: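 Thermal melt with 5× final Sypro Orange: ramp 1° C/min from 30 to 95° C, reading each 60 s, derivative of fluorescence plotted by temperature. Luciferase variants were in 20 mM HEPES pH 7.5, 200 mM NaCl, 1 mM EDTA; other enzymes in 50 mM HEPES pH 7.5, 100 mM NaCl, 2 mM EDTA.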

Row | Molecule | Vmax (RLU) CS0333 BrightGlo Buffer [1] | Vmax (RLU) CS0333 Detection Reagent Buffer [1] | Vmax (RLU) D/L-luciferin BrightGlo Buffer [2] | Vmax (RLU) D/L-luciferin Detection Reagent Buffer [2] | Vmax (RLU) CS0280 BrightGlo Buffer [3] | Vmax (RLU) CS0280 Detection Reagent Buffer [3] | Km ([4]; BrightGlo Buffer) | Vmax (RLU) ([4]; BrightGlo Buffer) | Km ([4]; Detection Reagent Buffer) | Vmax (RLU) ([4]; Detection Reagent Buffer) | Km ([5]; BrightGlo Buffer) | Vmax (RLU) ([5]; BrightGlo Buffer) | Km ([5]; Detection Reagent Buffer) | Vmax (RLU) ([5]; Detection Reagent Buffer) | Km ([6]; BrightGlo Buffer) | Vmax (RLU) ([6]; BrightGlo Buffer) | Km ([6]; Detection Reagent Buffer) | Vmax (RLU) ([6]; Detection Reagent Buffer) | further results
1 | B1 | 3,525,730 RLU | 2,139,740 RLU | 1,227,230 RLU | 515,688 RLU | 620,182 RLU | 21,505 RLU | 8.44 µM | 2,895,248 RLU | 48.4 µM | 543,865 RLU | 8.94 µM | 359,383 RLU | 619 µM | 26,247 RLU | 0.0737 µM | 1,993,509 RLU | 0.21 µM | 332,703 RLU | 
2 | B2 | 1,433,640 RLU | 1,270,240 RLU | 416,355 RLU | 52,341 RLU | 1,368,890 RLU | 57,404 RLU | 4.89 µM | 1,336,251 RLU | 48.4 µM | 353,432 RLU | 5.6 µM | 652,464 RLU | 678 µM | 44,058 RLU | 0.0482 µM | 351,895 RLU | 0.26 µM | 33,641 RLU | 
3 | B3 | 8,608,150 RLU | 4,805,980 RLU | 1,074,780 RLU | 249,347 RLU | 1,490,130 RLU | 76,615 RLU | 6.45 µM | 4,586,290 RLU | 37.6 µM | 727,712 RLU | 4.88 µM | 534,004 RLU | 632 µM | 58,187 RLU | 0.0834 µM | 924,955 RLU | 0.265 µM | 123,752 RLU | 
4 | B4 | 405,859 RLU | 175,261 RLU | 954,983 RLU | 103,199 RLU | 484,293 RLU | 11,418 RLU | 4.09 µM | 519,457 RLU | 56.8 µM | 49,798 RLU | 5.74 µM | 330,383 RLU | 848 µM | 10,047 RLU | 0.0583 µM | 1,055,203 RLU | 0.395 µM | 60,231 RLU | 
5 | B5 | 3,768,010 RLU | 2,570,070 RLU | 509,406 RLU | 78,859 RLU | 1,803,730 RLU | 90,671 RLU | 6.66 µM | 4,114,986 RLU | 22 µM | 822,270 RLU | 7.71 µM | 1,098,792 RLU | 474 µM | 88,269 RLU | 0.176 µM | 1,081,804 RLU | 0.435 µM | 75,581 RLU | 
6 | B6 |  |  |  |  |  |  | 6.83 µM | 2,891,897 RLU | 21.5 µM | 591,292 RLU | 5.72 µM | 368,599 RLU | 391 µM | 38,794 RLU | 0.136 µM | 334,536 RLU | 0.227 µM | 41,310 RLU | Km ([7]; BrightGlo Buffer): 11.9 µM; Vmax (RLU) ([7]; BrightGlo Buffer): 1,193,838 RLU; Km ([7]; Detection Reagent Buffer): 50.6 µM; Vmax (RLU) ([7]; Detection Reagent Buffer): 66,768 RLU; DSF Tm (° C.) [8]: 72 °C
